# Values of other authors in PMC4740388.
# Several values for one entry are separate records, joined by “and”; a condition that tells them apart may be missing. Identical values can stand only once. Like-named read-outs stand apart in the source and are kept apart here.
# Legend:
# [1] = target: VEGFR1 ectodomain (Homo sapiens) (UniProt P17948)
# [2] = target: VEGFR2 ectodomain (Homo sapiens) (UniProt P35968)
# Nucleolin (Homo sapiens) = Nucleolin (Homo sapiens) (UniProt P19338)
# [3] = target: Integrin α5β1 (Homo sapiens) (UniProt P08648)
# [4] = target: Integrin αvβ3 (Homo sapiens) (UniProt P06756)
# [5] = target: Integrin αvβ3 (Homo sapiens) (UniProt P06756); remark: listed apart in the source
# Integrin αvβ3 (Homo sapiens), sequence (P06756 31-992, chain 1 of 2): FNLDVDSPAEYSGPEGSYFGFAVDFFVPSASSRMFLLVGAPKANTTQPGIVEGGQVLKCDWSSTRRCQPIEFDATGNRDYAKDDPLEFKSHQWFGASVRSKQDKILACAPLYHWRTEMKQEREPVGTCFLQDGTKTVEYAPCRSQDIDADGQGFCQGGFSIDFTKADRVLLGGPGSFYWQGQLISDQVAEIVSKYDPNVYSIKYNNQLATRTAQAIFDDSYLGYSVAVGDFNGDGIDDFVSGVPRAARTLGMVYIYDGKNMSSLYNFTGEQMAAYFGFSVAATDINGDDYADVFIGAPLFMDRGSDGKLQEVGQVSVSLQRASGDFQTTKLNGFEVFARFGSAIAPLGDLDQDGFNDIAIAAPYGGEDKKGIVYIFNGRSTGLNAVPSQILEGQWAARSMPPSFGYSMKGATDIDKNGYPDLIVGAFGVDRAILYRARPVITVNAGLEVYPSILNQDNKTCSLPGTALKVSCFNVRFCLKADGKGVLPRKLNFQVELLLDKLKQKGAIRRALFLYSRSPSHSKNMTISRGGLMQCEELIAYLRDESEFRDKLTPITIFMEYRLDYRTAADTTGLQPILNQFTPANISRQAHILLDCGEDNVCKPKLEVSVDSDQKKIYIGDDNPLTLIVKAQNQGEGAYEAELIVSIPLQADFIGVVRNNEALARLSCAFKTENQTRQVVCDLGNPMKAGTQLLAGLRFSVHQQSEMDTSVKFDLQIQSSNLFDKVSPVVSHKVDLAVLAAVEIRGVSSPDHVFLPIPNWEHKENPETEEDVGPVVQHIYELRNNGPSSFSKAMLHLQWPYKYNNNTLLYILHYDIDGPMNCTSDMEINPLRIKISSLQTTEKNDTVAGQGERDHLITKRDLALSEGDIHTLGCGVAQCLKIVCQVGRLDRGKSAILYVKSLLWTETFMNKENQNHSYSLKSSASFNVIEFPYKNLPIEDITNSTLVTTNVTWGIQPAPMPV
# Integrin αvβ3 (Homo sapiens), sequence (P05106 27-718, chain 2 of 2, further chain): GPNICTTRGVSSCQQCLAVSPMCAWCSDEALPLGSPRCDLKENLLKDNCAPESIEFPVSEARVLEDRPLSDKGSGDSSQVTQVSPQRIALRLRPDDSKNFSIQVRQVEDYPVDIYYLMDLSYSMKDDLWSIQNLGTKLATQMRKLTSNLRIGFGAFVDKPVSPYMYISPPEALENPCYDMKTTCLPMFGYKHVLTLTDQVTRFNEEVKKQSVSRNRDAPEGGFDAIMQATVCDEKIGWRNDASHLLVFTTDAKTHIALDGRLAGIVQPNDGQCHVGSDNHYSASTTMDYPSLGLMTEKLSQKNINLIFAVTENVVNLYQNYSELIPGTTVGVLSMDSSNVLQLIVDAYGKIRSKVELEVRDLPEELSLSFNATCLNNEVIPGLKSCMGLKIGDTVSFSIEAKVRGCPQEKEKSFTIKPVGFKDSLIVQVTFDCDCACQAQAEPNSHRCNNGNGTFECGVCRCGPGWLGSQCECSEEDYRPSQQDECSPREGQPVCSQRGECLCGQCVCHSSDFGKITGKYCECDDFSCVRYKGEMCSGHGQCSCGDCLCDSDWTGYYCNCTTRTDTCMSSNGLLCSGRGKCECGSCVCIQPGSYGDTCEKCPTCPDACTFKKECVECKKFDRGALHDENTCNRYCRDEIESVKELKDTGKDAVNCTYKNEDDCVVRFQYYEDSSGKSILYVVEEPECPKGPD
# Endostatin endostatin, sequence (P39060 1569-1754): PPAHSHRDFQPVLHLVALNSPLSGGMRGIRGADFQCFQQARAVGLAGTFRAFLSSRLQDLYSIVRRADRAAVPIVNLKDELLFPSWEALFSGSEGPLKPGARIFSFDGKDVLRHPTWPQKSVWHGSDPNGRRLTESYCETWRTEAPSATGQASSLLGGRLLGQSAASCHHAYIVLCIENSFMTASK
# Integrin α5β1 (Homo sapiens), sequence (P08648 42-995, chain 1 of 2): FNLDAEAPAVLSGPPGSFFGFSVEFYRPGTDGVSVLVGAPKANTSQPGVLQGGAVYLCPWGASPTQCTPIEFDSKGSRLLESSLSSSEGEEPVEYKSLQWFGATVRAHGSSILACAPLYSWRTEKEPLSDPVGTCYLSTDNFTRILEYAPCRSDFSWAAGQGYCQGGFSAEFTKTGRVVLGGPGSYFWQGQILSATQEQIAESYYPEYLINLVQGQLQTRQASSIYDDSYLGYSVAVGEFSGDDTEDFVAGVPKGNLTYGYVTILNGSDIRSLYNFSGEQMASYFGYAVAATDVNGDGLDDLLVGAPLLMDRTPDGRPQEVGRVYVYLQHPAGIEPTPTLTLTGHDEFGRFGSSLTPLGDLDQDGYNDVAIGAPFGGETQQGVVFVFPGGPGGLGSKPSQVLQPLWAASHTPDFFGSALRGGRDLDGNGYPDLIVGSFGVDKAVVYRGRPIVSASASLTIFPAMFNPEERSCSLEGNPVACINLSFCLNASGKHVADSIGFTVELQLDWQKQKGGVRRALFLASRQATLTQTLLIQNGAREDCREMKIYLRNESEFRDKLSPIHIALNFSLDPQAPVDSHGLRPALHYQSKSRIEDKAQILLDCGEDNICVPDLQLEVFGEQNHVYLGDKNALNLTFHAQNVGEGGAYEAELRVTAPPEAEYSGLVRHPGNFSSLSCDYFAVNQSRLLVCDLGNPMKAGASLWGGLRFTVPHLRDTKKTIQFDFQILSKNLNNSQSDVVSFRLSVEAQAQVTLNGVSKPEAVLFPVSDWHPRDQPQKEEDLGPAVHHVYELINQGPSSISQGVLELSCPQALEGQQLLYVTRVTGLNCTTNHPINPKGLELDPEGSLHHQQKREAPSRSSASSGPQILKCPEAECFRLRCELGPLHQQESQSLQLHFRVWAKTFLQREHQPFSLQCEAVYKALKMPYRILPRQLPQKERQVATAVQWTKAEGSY
# Integrin α5β1 (Homo sapiens), sequence (P05556 21-728, chain 2 of 2, further chain): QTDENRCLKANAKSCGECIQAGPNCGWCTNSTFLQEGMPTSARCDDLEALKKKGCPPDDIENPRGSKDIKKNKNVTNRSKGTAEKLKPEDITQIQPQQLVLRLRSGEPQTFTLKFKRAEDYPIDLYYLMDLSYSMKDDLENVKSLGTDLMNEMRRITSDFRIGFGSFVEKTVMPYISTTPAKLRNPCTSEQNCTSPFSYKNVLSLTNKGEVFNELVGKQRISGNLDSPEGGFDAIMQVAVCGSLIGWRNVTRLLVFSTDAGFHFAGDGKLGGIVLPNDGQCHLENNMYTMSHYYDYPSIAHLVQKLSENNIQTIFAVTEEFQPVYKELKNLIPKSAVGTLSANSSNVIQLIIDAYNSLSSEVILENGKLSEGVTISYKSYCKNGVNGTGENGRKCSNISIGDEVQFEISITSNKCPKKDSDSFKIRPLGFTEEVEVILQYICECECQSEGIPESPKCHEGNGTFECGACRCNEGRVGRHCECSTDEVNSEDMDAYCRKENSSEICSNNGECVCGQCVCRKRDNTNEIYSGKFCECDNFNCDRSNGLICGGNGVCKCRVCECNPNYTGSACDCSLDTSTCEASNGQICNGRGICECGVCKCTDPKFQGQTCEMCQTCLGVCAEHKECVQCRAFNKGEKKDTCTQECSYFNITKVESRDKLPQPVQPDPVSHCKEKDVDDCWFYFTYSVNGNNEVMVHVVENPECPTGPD
# Endorepellin endorepellin, sequence (P98160 3684-4391): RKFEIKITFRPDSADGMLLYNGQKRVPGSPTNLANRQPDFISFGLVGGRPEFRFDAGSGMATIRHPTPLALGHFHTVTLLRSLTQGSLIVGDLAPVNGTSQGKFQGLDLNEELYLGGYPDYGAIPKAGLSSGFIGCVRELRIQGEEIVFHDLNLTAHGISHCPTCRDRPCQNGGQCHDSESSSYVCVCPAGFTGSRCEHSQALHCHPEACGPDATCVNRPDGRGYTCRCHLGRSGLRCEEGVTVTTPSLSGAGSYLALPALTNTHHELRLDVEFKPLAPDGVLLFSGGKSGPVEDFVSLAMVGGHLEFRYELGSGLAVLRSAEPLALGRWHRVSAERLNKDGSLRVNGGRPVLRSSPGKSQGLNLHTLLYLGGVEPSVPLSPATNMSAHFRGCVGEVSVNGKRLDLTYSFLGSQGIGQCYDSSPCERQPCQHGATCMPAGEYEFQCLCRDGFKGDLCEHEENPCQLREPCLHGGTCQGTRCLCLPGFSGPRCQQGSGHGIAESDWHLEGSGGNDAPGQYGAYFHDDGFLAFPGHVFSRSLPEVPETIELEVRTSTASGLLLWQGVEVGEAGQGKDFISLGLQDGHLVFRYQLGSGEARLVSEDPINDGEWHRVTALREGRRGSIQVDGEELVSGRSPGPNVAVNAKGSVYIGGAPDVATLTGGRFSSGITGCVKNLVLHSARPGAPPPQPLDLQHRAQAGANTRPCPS
# VEGFR2 ectodomain (Homo sapiens), sequence (P35968 20-764): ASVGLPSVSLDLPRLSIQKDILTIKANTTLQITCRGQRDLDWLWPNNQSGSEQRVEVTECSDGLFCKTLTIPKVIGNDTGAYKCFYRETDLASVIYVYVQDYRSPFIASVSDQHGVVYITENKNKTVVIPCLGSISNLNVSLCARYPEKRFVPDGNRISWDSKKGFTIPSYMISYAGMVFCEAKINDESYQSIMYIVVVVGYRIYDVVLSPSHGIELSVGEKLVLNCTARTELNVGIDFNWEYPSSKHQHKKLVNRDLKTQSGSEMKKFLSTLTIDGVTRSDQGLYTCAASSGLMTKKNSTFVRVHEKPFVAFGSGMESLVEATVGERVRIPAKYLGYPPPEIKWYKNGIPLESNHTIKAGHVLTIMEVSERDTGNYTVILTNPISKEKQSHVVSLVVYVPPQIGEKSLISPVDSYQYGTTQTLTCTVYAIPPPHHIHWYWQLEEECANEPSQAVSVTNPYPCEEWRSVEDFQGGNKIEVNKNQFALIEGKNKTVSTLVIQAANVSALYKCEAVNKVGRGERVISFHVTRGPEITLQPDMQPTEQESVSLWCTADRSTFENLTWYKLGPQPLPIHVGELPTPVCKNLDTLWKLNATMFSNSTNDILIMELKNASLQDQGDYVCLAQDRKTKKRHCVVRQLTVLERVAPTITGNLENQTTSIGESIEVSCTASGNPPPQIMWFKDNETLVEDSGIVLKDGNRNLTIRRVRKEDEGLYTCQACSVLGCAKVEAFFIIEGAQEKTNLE
substance,measurement,setting,value
Endorepellin endorepellin (from UniProt P98160),Kd,[1],0.001 µM
same,Kd,[2],0.0009 µM
Endostatin endostatin (from UniProt P39060),Kd,Nucleolin (Homo sapiens),0.013 µM
same,Kd,[3],0.975 µM and 0.451 µM
same,Kd,[4],0.501 µM and 1.2 µM
Tetrastatin tetrastatin (from UniProt P53420),Kd,[5],0.148 µM
